Measurements taken from article PMC7980507 (Protein Science : A Publication of the Protein Society, 2021).

Target: His‐tagged SARS‐CoV‐2 spike receptor binding domain (RBD) (SARS-CoV-2, UniProt P0DTC2)
Test: BLI

| Binder | binding result |
| --- | --- |
| EY6A (antibody, V domains shown) VH: EVQLVESGGGVVQPGRSLRLSCAASAFTFSSYDMHWVRQAPGKGLEWVAVISYDGSNKYYADSVKGRFTISRDNSKNTLYLQMNSLRAEDTAVYYCAKDGGKLWVYYFDYWGQGTLVTVSS VL: not shown | binds |
| CB6 (antibody, V domains shown) VH: EVQLVESGGGLVQPGGSLRLSCAASGFTVSSNYMSWVRQAPGKGLEWVSVIYSGGSTFYADSVKGRFTISRDNSMNTLFLQMNSLRAEDTAVYYCARVLPMYGDYLDYWGQGTLVTVSS VL: not shown | binds |
